Columns and labels:
[1] = biological target: T1, FcγRIIA (CD32a) (UniProt P12318 34-217, limits assumed); assay: SPR, Biacore S200, antibody captured on Protein A chip, FcγR as analyte
T1 sequence (looked up): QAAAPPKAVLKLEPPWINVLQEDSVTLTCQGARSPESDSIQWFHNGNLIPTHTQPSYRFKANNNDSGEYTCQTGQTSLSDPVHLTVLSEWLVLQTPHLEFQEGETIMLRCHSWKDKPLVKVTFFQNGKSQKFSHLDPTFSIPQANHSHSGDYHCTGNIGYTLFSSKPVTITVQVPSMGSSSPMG
Protocol: (§1) Binding of CD40.9H3×FAP.LP62 and the analog of RO7300490 to various Fc gamma receptors (FcγR1 (CD64), FcγRIIIA (CD16a), FcγRIIIB (CD16b), FcγRIIA (CD32a), FcγRIIB (CD32b)) was determined in an analyte/capture assay in vitro. Briefly, an SPR assay was performed using a Biacore S200 with a Biacore Series S Protein A chip (Cytiva). All antibodies were prepared at 4.0 μg/ml in 1×HBS-EP+ running buffer (Cytiva) and captured onto flow cells 2, 3, and 4 through a 60 second contact time at 10 μl/min. An analyte series of the FcγRs (BMS In-House Produced) were prepared at 10,000 nM in 1×HBS-EP+ with eight, three-fold dilutions. Kinetic measurements were conducted with a 120 second association followed by a 120 second dissociation at 30 μl/min. Surface regeneration was preformed by 60 second contact time of 50 mM Glycine pH 1.5 solution (Cytiva) at 30 μl/min. Data was processed in Biacore Insight Evaluation Version 5 (Cytiva). Sensorgrams were double referenced and globally fit to a 1:1 Langmuir model were applicable. Where 1:1 model was not sufficient to describe the interaction (fast-on and fast-off rates), steady state equilibrium fitting was used to determine the equilibrium constant.

[2] = biological target: FcγRIIIA (CD16a) (UniProt P08637 17-208, limits assumed); assay: as above
FcγRIIIA (CD16a), sequence (P08637 17-208 limits assumed): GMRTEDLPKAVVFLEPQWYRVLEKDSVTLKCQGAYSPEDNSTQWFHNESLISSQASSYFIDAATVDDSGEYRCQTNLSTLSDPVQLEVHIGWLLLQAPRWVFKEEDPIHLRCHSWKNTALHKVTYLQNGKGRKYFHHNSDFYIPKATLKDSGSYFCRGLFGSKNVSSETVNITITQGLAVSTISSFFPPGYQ
Protocol: as §1

[3] = biological target: cynomolgus (cyno) CD40 protein (cynomolgus monkey, UniProt G7PG38 21-193); assay: SPR
Protocol: (§2) CD40.9H3×FAP.LP62 and an analog of RO7300490 (see SEQ ID NOs: 39-42) binding to human and cynomolgus (cyno) CD40 and FAP was evaluated by surface plasmon resonance (SPR) using human and cyno CD40 and FAP proteins. […] The rates of association and dissociation of CD40.9H3×FAP.LP62 and the analog of RO7300490 to human CD40 and FAP are summarized in Table 2.

[4] = biological target: T2, human CD40 protein (human, UniProt P25942 21-193); assay: SPR
T2 construct: Protein used in SPR
T2 sequence (P25942 21-193 limits assumed): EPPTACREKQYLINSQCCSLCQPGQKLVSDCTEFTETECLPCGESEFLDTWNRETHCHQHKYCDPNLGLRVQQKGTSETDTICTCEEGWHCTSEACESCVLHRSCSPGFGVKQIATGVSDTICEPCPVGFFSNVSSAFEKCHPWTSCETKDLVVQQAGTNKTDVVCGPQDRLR
Protocol: as §2

[5] = biological target: T3, human FAP protein (human, UniProt Q12884 26-760); assay: SPR
T3 sequence: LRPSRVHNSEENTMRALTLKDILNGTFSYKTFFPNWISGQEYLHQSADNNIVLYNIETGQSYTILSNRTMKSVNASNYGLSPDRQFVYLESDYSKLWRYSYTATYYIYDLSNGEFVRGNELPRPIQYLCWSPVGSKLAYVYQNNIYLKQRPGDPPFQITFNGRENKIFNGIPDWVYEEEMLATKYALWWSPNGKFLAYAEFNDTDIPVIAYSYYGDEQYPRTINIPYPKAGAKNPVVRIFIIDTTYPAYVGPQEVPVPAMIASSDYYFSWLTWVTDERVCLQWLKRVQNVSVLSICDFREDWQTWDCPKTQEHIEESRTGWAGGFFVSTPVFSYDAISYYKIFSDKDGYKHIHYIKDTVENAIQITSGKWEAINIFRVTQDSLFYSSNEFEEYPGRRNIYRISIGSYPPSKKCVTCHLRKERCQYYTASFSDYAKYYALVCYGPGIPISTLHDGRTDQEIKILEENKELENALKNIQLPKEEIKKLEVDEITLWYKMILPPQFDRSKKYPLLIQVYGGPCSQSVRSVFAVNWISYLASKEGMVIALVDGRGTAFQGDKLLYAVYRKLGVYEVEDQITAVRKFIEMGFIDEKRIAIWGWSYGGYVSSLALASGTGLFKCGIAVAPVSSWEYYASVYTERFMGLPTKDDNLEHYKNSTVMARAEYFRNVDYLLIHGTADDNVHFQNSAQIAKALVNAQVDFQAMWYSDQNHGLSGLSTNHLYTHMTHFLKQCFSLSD
Protocol: as §2

[6] = biological target: T4, cynomolgus (cyno) FAP protein (cynomolgus monkey); assay: SPR
T4 chain: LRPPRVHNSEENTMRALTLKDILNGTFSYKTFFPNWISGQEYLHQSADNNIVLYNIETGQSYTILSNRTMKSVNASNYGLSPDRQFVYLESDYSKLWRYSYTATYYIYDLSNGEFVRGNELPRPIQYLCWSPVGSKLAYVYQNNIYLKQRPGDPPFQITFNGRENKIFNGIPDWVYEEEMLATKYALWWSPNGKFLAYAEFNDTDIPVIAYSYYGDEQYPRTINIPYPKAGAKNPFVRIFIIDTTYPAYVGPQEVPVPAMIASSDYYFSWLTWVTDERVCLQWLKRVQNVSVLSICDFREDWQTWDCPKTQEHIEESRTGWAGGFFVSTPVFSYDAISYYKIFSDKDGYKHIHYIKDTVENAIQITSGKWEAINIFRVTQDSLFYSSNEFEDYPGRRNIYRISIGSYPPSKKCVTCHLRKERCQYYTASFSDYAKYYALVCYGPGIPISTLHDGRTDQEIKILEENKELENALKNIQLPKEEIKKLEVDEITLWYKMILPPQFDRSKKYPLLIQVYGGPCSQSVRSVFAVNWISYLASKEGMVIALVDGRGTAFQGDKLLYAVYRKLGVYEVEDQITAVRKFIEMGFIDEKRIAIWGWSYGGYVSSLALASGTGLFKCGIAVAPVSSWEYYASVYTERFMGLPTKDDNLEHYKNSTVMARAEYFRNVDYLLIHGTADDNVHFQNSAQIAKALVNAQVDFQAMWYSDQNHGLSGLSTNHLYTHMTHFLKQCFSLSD
Protocol: as §2

[7] = biological target: T5, cyno FAP on HEK cells (cynomolgus monkey); assay: binding to cyno FAP-positive HEK cells
T5 construct: whole, on cells; also called Cyno FAP-positive HEK cells

B1: CD40.9H3×FAP.LP62 bispecific antibody (bispecific antibody, human IgG1, kappa, L234A L235A)
heavy 1: EVQLVESGGGLVQPGGSLRLSCAASGFTFIGYSMNWVRQAPGKGLEWVSYISSYESTIYYADSVKGRFTISRDNAKNSLYLQMNSLRAEDTAVYYCARSRITLVRGVPRYFDLWGRGTLVTVSSASTKGPSVFPLAPSSKSTSGGTAALGCLVKDYFPEPVTVSWNSGALTSGVHTFPAVLQSSGLYSLSSVVTVPSSSLGTQTYICNVNHKPSNTKVDKKVEPKSCDKTHTCPPCPAPEAAGGPSVFLFPPKPKDTLMISRTPEVTCVVVSVSHEDPEVKFNWYVDGVEVHNAKTKPREEQYNSTYRVVSVLTVLHQDWLNGKEYKCKVSNKALPAPIEKTISKAKGQPREPQVYVLPPSREEMTKNQVSLLCLVKGFYPSDIAVEWESNGQPENNYLTWPPVLDSDGSFFLYSKLTVDKSRWQQGNVFSCSVMHEALHNHYTQKSLSLSPG
heavy 2: EVQLVESGGGLVQPGGSLRLSCAASGFTFIGYSMNWVRQAPGKGLEWVSYISSYESTIYYADSVKGRFTISRDNAKNSLYLQMNSLRAEDTAVYYCARSRITLVRGVPRYFDLWGRGTLVTVSSASTKGPSVFPLAPSSKSTSGGTAALGCLVKDYFPEPVTVSWNSGALTSGVHTFPAVLQSSGLYSLSSVVTVPSSSLGTQTYICNVNHKPSNTKVDKKVEPKSCDKTHTCPPCPAPEAAGGPSVFLFPPKPKDTLMISRTPEVTCVVVSVSHEDPEVKFNWYVDGVEVHNAKTKPREEQYNSTYRVVSVLTVLHQDWLNGKEYKCKVSNKALPAPIEKTISKAKGQPREPQVYVYPPSREEMTKNQVSLTCLVKGFYPSDIAVEWESNGQPENNYKTTPPVLDSDGSFALVSKLTVDKSRWQQGNVFSCSVMHEALHNHYTQKSLSLSPGGGSGGGGSGGGGSGGGGSEVQLLESGGGLVQPGGSLRLSCAASGFTFSSRGMSWVRQAPGKCLEWVSFISSSGTYVYYADSVKGRFTISRDNSKNTLYLQMNSLRAEDTAVYYCARDLPRTGVYFGMDVWGQGTTVTVSSGGGGSGGGGSGGGGSGGGGSDIQMTQSPSSLSASVGDRVTITCRASQSIFNYLNWYQQKPGKAPKLLIYGASTLQSGVPSRFSGSGSGTDFTLTISSLQPEDFATYYCQESYSTPYTFGCGTKVEIK
light: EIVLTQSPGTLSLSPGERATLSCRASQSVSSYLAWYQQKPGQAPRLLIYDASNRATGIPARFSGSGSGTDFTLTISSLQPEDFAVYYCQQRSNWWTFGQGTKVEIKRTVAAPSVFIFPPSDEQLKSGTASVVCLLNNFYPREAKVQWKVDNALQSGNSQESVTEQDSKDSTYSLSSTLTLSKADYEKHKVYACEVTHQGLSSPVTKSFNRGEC
notes: 2+1 format: two anti-CD40 9H3 Fabs on an IgG1 Fc with L234A, L235A, D265S and heterodimerization mutations; Ratio 1:1:2
With B1 the binding result [1] was “no binding”, the binding result [2] was “no binding” and the Kd [3] was 97 nM. The koff [3] was 0.0052 s⁻¹, the kon [3] was 53000 M⁻¹ s⁻¹ and the Kd [4] was 92 nM. The koff [4] was 0.0052 s⁻¹, the kon [4] was 57000 M⁻¹ s⁻¹ and the Kd [5] was 1.96 nM. It also gave a koff [5] of 0.00147 s⁻¹, a kon [5] of 750000 M⁻¹ s⁻¹ and a Kd [6] of 5.6 nM. For the same binder, the koff [6] was 0.00276 s⁻¹, the kon [6] was 500000 M⁻¹ s⁻¹ and the EC50 [7] was 3.6 nM.
